For experiment [1], the target named is KAT1 K+ channel of Arabidopsis, myc-tagged (Arabidopsis) (UniProt Q39128).
The target is the same in experiment [2]. The source holds these as a separate data set.

Chain of UniProt Q39128 (Q39128 whole entry): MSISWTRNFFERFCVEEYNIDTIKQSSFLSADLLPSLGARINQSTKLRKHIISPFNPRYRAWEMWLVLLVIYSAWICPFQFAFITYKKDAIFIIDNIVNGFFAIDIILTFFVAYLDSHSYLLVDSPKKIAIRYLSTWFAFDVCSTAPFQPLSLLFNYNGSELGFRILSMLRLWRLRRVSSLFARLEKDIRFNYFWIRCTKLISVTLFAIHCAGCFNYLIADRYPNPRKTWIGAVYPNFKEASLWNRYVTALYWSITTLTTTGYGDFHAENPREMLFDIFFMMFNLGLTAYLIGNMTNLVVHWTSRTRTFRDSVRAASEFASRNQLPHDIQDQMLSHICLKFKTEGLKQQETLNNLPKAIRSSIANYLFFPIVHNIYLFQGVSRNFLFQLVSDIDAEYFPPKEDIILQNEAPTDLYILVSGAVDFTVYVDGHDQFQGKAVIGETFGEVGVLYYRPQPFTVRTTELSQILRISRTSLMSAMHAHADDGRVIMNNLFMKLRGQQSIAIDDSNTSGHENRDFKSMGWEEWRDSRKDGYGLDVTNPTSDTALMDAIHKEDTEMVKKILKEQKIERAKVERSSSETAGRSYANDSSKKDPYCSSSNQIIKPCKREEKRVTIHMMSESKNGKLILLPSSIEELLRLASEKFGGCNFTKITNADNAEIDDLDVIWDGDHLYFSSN

As for “SYP121^ΔC, cytosolic SNARE domain, expressed in oocytes (domain or fragment)”, the amount of SYP121^ΔC in the oocyte that gives a near-maximal effect on KAT1 gating (roughly 0.4 ng per oocyte) in experiment [1] is 0.14 µM.
“SYP121^ΔC, soluble cytosolic domain, recombinant (domain or fragment)” yielded a single-channel open probability Po of KAT1 at −120 mV after adding 1 μM SYP121^ΔC to inside-out patches in experiment [2] of 3.4%.

The values are drawn from paper PMC6220998.
